# Values quoted from earlier work, collected in publication PMC4221657.
# Key:
# [1] = target: PAC1 receptor (Homo sapiens) (UniProt P41586)
# [2] = target: VPAC1 receptor (Homo sapiens) (UniProt P32241)
# [3] = target: VPAC2 receptor (Homo sapiens) (UniProt P41587)
# Sequence of UniProt P41587 (P41587 24-438): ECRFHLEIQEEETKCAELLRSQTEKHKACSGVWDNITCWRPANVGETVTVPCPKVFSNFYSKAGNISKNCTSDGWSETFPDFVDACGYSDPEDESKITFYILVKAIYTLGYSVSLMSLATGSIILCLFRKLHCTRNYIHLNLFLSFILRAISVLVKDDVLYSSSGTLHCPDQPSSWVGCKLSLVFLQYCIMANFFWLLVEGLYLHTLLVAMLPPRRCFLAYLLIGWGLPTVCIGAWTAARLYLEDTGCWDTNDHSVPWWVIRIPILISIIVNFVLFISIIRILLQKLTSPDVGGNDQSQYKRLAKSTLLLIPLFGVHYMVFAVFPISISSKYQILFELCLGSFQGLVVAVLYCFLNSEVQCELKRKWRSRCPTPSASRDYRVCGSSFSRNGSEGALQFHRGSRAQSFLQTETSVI
# Sequence of UniProt P41586 (P41586 21-468): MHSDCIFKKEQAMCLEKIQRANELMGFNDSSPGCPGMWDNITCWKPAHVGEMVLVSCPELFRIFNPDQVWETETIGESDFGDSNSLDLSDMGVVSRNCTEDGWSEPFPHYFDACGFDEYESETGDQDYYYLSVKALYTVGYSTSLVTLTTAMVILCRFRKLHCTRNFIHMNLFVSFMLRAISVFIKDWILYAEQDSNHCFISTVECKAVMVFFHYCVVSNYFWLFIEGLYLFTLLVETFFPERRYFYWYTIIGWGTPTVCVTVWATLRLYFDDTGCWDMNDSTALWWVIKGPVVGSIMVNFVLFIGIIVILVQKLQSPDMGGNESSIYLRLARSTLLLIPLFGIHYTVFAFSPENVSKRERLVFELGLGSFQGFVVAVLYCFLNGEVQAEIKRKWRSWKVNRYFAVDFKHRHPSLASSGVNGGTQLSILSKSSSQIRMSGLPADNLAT
# Sequence of UniProt P32241 (P32241 31-457): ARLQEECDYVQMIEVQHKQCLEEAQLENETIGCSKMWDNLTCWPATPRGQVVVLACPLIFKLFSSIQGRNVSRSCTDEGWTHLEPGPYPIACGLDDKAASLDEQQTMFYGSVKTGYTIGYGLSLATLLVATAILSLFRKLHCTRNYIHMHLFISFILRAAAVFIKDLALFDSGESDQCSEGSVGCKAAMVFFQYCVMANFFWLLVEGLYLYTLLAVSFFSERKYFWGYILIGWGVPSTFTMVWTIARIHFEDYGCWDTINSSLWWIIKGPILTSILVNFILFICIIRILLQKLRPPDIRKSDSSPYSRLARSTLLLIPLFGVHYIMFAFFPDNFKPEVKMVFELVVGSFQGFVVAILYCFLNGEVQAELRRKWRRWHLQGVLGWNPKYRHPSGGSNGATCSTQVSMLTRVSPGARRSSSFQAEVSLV
substance,measurement,setting,value
PACAP38 (from UniProt P18509),Kd,[1],0.5 nM
same,Kd,[2],1 nM
same,Kd,[3],1 nM
